{"source": "paper PMC6053526", "about": "“Arabidopsis WRKY50 and TGA Transcription Factors Synergistically Activate Expression of PR1”", "binders": {"B1": {"name": "Am1 (dsDNA)", "DNA 1": "GGGGGTGATCTATTGACTTTTCTCTACGTCACTAT", "DNA 2": "GGGATAGTGACGTAGAGAAAAGTCAATAGATCACC"}, "B2": {"name": "fragment D (dsDNA)", "DNA 1": "GATGTGGCGGCATATATTCTTCAGGACTTTTC", "DNA 2": "GAAAAGTCCTGAAGAATATATGCCGCCACATC"}, "B3": {"name": "Am2 (dsDNA)", "DNA 1": "GGGGGTGATCTATTGACTGCCTCTCTACGTCACTA", "DNA 2": "GGGTAGTGACGTAGAGAGGCAGTCAATAGATCACC"}, "B4": {"name": "fragment B (dsDNA)", "DNA 1": "TTTCTCTACGTCACTATTTTACTTACGTCATA", "DNA 2": "TATGACGTAAGTAAAATAGTGACGTAGAGAAA"}, "B5": {"name": "Dm2 (dsDNA)", "DNA 1": "GGGGATGTGGCGGCATATATTCCCCAGGACTTTTC", "DNA 2": "GGGGAAAAGTCCTGGGGAATATATGCCGCCACATC"}, "B6": {"name": "fragment C (dsDNA)", "DNA 1": "TTTTACTTACGTCATAGATGTGGCGGCATATA", "DNA 2": "TATATGCCGCCACATCTATGACGTAAGTAAAA"}, "B7": {"name": "fragment A (dsDNA)", "DNA 1": "GGTGATCTATTGACTGTTTCTCTACGTCACTA", "DNA 2": "TAGTGACGTAGAGAAACAGTCAATAGATCACC"}}, "key": {"GST-AtWRKY50-C [1]": {"molecular_target": "T1, GST-AtWRKY50-C (Arabidopsis thaliana, UniProt Q8VWQ5 86-173)", "T1 sequence (Q8VWQ5 86-173)": "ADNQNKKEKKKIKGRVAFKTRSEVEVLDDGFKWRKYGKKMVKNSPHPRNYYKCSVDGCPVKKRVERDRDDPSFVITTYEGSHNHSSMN", "test": "EMSA; enhanced vs fragment A; 5x buffer (3 uL in 14 uL): 20% glycerol, 5 mM MgCl2, 2.5 mM EDTA, 2.5 mM DTT, 250 mM NaCl, 50 mM Tris-HCl pH 7.5, 0.25 mg/ml poly(dI-dC); 0.5 ug protein; 10 min RT, then 60 min on ice with probe; gel at 4 C", "conditions": "protein: recombinant; tags: GST (N-term); label: 32P; 5' overhang 3 nt (GGG) both ends"}, "GST-AtWRKY50-C [2]": {"molecular_target": "T1, GST-AtWRKY50-C", "test": "EMSA; 5x buffer (3 uL in 14 uL): 20% glycerol, 5 mM MgCl2, 2.5 mM EDTA, 2.5 mM DTT, 250 mM NaCl, 50 mM Tris-HCl pH 7.5, 0.25 mg/ml poly(dI-dC); 0.5 ug protein; 10 min RT, then 60 min on ice with probe; gel at 4 C", "conditions": "protein: recombinant, tags: GST (N-term), label: 32P"}, "TGA2-His [3]": {"molecular_target": "T2, TGA2-His (Arabidopsis thaliana, UniProt P43273 1-330)", "T2 sequence": "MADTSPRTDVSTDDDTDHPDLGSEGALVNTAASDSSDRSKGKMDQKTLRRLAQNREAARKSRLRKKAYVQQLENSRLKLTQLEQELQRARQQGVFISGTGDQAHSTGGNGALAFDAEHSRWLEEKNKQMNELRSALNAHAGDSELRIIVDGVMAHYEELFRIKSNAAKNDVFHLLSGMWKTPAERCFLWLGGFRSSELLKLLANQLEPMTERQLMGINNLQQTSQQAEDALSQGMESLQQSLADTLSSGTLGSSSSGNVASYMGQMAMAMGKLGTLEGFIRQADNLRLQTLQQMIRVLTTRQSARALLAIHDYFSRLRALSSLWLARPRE", "test": "EMSA; shift increased by full-length AtWRKY50; 5x buffer (3 uL in 14 uL): 20% glycerol, 5 mM MgCl2, 2.5 mM EDTA, 2.5 mM DTT, 250 mM NaCl, 50 mM Tris-HCl pH 7.5, 0.25 mg/ml poly(dI-dC); 0.5 ug protein; 10 min RT, then 60 min on ice with probe; gel at 4 C", "conditions": "protein: recombinant; tags: His; chain copies: 2; label: 32P; blunt"}, "GST-AtWRKY50-C [4]": {"molecular_target": "T1, GST-AtWRKY50-C", "test": "EMSA; as wild type D; 5x buffer (3 uL in 14 uL): 20% glycerol, 5 mM MgCl2, 2.5 mM EDTA, 2.5 mM DTT, 250 mM NaCl, 50 mM Tris-HCl pH 7.5, 0.25 mg/ml poly(dI-dC); 0.5 ug protein; 10 min RT, then 60 min on ice with probe; gel at 4 C", "conditions": "protein: recombinant; tags: GST (N-term); label: 32P; 5' overhang 3 nt (GGG) both ends"}, "TGA2-His [5]": {"molecular_target": "T2, TGA2-His", "test": "EMSA; 5x buffer (3 uL in 14 uL): 20% glycerol, 5 mM MgCl2, 2.5 mM EDTA, 2.5 mM DTT, 250 mM NaCl, 50 mM Tris-HCl pH 7.5, 0.25 mg/ml poly(dI-dC); 0.5 ug protein; 10 min RT, then 60 min on ice with probe; gel at 4 C", "conditions": "protein: recombinant; tags: His; chain copies: 2; label: 32P; blunt"}}, "data": [{"binder": "B1", "values": [{"measurement": "binding result", "setting": "GST-AtWRKY50-C [1]", "value": "binds"}]}, {"binder": "B2", "values": [{"measurement": "binding result", "setting": "GST-AtWRKY50-C [2]; blunt", "value": "binds"}]}, {"binder": "B3", "values": [{"measurement": "binding result", "setting": "GST-AtWRKY50-C [2]; 5' overhang 3 nt (GGG) both ends", "value": "no binding"}]}, {"binder": "B4", "values": [{"measurement": "binding result", "setting": "TGA2-His [3]", "value": "binds"}]}, {"binder": "B5", "values": [{"measurement": "binding result", "setting": "GST-AtWRKY50-C [4]", "value": "binds"}]}, {"binder": "B6", "values": [{"measurement": "binding result", "setting": "TGA2-His [3]", "value": "binds"}]}, {"binder": "B7", "values": [{"measurement": "binding result", "setting": "TGA2-His [5]", "value": "no binding"}, {"measurement": "binding result", "setting": "GST-AtWRKY50-C [2]; blunt", "value": "binds"}]}]}
